# Results reported in PMC10786891, “Massively parallel profiling of RNA-targeting CRISPR-Cas13d”.
# T1: EsCas13d, nuclease-dead (Eubacterium siraeum, UniProt B0MS50, R295A;H300A;R849A;H854A)
# T1 sequence: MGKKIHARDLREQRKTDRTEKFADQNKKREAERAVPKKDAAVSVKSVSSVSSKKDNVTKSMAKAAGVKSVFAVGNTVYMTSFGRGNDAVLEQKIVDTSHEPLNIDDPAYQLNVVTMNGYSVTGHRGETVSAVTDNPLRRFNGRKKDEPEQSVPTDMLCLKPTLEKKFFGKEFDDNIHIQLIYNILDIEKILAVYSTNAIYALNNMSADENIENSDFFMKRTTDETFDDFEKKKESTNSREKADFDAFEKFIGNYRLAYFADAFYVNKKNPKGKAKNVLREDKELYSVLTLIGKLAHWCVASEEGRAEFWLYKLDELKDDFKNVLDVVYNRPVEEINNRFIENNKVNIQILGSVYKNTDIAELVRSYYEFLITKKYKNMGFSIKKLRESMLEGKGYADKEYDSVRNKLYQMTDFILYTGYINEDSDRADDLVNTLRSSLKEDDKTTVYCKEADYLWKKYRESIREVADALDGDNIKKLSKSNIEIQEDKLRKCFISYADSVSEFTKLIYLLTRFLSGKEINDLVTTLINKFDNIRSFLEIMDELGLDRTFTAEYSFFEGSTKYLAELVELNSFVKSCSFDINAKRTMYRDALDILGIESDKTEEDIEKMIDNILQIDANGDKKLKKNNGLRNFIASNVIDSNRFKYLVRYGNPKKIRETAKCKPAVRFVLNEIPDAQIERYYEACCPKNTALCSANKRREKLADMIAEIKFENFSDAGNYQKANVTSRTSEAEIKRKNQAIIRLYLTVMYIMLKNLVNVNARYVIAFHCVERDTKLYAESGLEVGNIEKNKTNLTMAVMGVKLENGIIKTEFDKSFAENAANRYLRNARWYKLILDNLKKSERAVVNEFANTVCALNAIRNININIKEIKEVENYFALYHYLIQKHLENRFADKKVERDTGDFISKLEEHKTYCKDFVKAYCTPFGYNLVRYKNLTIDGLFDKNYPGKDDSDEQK
# Biological target: T1, EsCas13d, nuclease-dead
# Assay: crRNA (strand 1, pre-loaded); Mg2+; 40 mM Tris-HCl pH 7.5, 150 mM NaCl, 6 mM MgCl2, 1 mM DTT, 0.1% Tween-20, 0.2 mg/ml BSA; 25 C; 10 min per concentration, then washed
# Settings: tags: His6-TwinStrep-SUMO cleaved; N-terminal SNAP kept (SNAP-Surface 488); label: 3' end held by stalled T7 RNA polymerase
binder,measurement,value
"target 1 U8A,A14G (mixed) RNA 1: CACCCGUGCAAAAAUGCAGGGGUCUAAAACUGAGCGGAUAACCUCUCUAUGG RNA 2: GGGAAUGGAUCCACAUCUACGAAUUCGUACCAUAGAGGGGUUAACCGCUCACCGAGAUCGGAAGAGCACACGU",Kd,31.1 ± 1.6 nM
"target 1 insC 3' of 15,insG 3' of 7 (mixed) RNA 1: CACCCGUGCAAAAAUGCAGGGGUCUAAAACUGAGCGGAUAACCUCUCUAUGG RNA 2: GGGAAUGGAUCCACAUCUACGAAUUCGUACCAUAGAGCAGGUUAUCGCGCUCACCGAGAUCGGAAGAGCACACGU",Kd,17.5 ± 1.2 nM
"target 1 del2,del8 (mixed) RNA 1: CACCCGUGCAAAAAUGCAGGGGUCUAAAACUGAGCGGAUAACCUCUCUAUGG RNA 2: GGGAAUGGAUCCACAUCUACGAAUUCGUACCAUAGAGAGGUUACCGCUACCGAGAUCGGAAGAGCACACGU",Kd,10 ± 0.5 nM
"target 1 insA 3' of 7,insA 3' of 5 (mixed) RNA 1: CACCCGUGCAAAAAUGCAGGGGUCUAAAACUGAGCGGAUAACCUCUCUAUGG RNA 2: GGGAAUGGAUCCACAUCUACGAAUUCGUACCAUAGAGAGGUUAUCACGACUCACCGAGAUCGGAAGAGCACACGU",Kd,7.21 ± 0.35 nM
"target 1 insU 3' of 13,insA 3' of 8 (mixed) RNA 1: CACCCGUGCAAAAAUGCAGGGGUCUAAAACUGAGCGGAUAACCUCUCUAUGG RNA 2: GGGAAUGGAUCCACAUCUACGAAUUCGUACCAUAGAGAGUGUUAUACCGCUCACCGAGAUCGGAAGAGCACACGU",Kd,14.1 ± 0.7 nM
"target 1 U8A,G15A (mixed) RNA 1: CACCCGUGCAAAAAUGCAGGGGUCUAAAACUGAGCGGAUAACCUCUCUAUGG RNA 2: GGGAAUGGAUCCACAUCUACGAAUUCGUACCAUAGAAAGGUUAACCGCUCACCGAGAUCGGAAGAGCACACGU",Kd,87 ± 23 nM
"target 1 G12U,C22A (mixed) RNA 1: CACCCGUGCAAAAAUGCAGGGGUCUAAAACUGAGCGGAUAACCUCUCUAUGG RNA 2: GGGAAUGGAUCCACAUCUACGAAUUCGUAACAUAGAGAGUUUAUCCGCUCACCGAGAUCGGAAGAGCACACGU",Kd,19.7 ± 1 nM
"target 1 insU 3' of 18,insA 3' of 3 (mixed) RNA 1: CACCCGUGCAAAAAUGCAGGGGUCUAAAACUGAGCGGAUAACCUCUCUAUGG RNA 2: GGGAAUGGAUCCACAUCUACGAAUUCGUACCAUAUGAGAGGUUAUCCGCUACACCGAGAUCGGAAGAGCACACGU",Kd,20.7 ± 0.7 nM
"target 1 insG 3' of 18,insU 3' of 18 (mixed) RNA 1: CACCCGUGCAAAAAUGCAGGGGUCUAAAACUGAGCGGAUAACCUCUCUAUGG RNA 2: GGGAAUGGAUCCACAUCUACGAAUUCGUACCAUAGUGAGAGGUUAUCCGCUCACCGAGAUCGGAAGAGCACACGU",Kd,68 ± 11 nM
"target 1 C7A,G13U (mixed) RNA 1: CACCCGUGCAAAAAUGCAGGGGUCUAAAACUGAGCGGAUAACCUCUCUAUGG RNA 2: GGGAAUGGAUCCACAUCUACGAAUUCGUACCAUAGAGAUGUUAUACGCUCACCGAGAUCGGAAGAGCACACGU",Kd,59 ± 21 nM
"target 1 insG 3' of 8,insA 3' of 6 (mixed) RNA 1: CACCCGUGCAAAAAUGCAGGGGUCUAAAACUGAGCGGAUAACCUCUCUAUGG RNA 2: GGGAAUGGAUCCACAUCUACGAAUUCGUACCAUAGAGAGGUUAUGCCAGCUCACCGAGAUCGGAAGAGCACACGU",Kd,13.1 ± 0.8 nM
"target 1 insA 3' of 15,insU 3' of 15 (mixed) RNA 1: CACCCGUGCAAAAAUGCAGGGGUCUAAAACUGAGCGGAUAACCUCUCUAUGG RNA 2: GGGAAUGGAUCCACAUCUACGAAUUCGUACCAUAGAGAUAGGUUAUCCGCUCACCGAGAUCGGAAGAGCACACGU",Kd,15.7 ± 1.2 nM
"target 1 insU 3' of 5,insG 3' of 1 (mixed) RNA 1: CACCCGUGCAAAAAUGCAGGGGUCUAAAACUGAGCGGAUAACCUCUCUAUGG RNA 2: GGGAAUGGAUCCACAUCUACGAAUUCGUACCAUAGAGAGGUUAUCCGUCUCAGCCGAGAUCGGAAGAGCACACGU",Kd,7.4 ± 0.6 nM
target 1 complement block 8-10 (mixed) RNA 1: CACCCGUGCAAAAAUGCAGGGGUCUAAAACUGAGCGGAUAACCUCUCUAUGG RNA 2: GGGAAUGGAUCCACAUCUACGAAUUCGUACCAUAGAGAGGUAUACCGCUCACCGAGAUCGGAAGAGCACACGU,Kd,30.9 ± 2.1 nM
"target 1 del1,del8 (mixed) RNA 1: CACCCGUGCAAAAAUGCAGGGGUCUAAAACUGAGCGGAUAACCUCUCUAUGG RNA 2: GGGAAUGGAUCCACAUCUACGAAUUCGUACCAUAGAGAGGUUACCGCUCCCGAGAUCGGAAGAGCACACGU",Kd,17.3 ± 1.7 nM
"target 1 insC 3' of 18,insA 3' of 2 (mixed) RNA 1: CACCCGUGCAAAAAUGCAGGGGUCUAAAACUGAGCGGAUAACCUCUCUAUGG RNA 2: GGGAAUGGAUCCACAUCUACGAAUUCGUACCAUACGAGAGGUUAUCCGCUCAACCGAGAUCGGAAGAGCACACGU",Kd,28.1 ± 2.6 nM
"target 1 C7U,C22U (mixed) RNA 1: CACCCGUGCAAAAAUGCAGGGGUCUAAAACUGAGCGGAUAACCUCUCUAUGG RNA 2: GGGAAUGGAUCCACAUCUACGAAUUCGUAUCAUAGAGAGGUUAUUCGCUCACCGAGAUCGGAAGAGCACACGU",Kd,14.2 ± 1.3 nM
"target 1 C2G,G15A (mixed) RNA 1: CACCCGUGCAAAAAUGCAGGGGUCUAAAACUGAGCGGAUAACCUCUCUAUGG RNA 2: GGGAAUGGAUCCACAUCUACGAAUUCGUACCAUAGAAAGGUUAUCCGCUGACCGAGAUCGGAAGAGCACACGU",Kd,14.2 ± 1.5 nM
"target 1 insG 3' of 8,insA 3' of 5 (mixed) RNA 1: CACCCGUGCAAAAAUGCAGGGGUCUAAAACUGAGCGGAUAACCUCUCUAUGG RNA 2: GGGAAUGGAUCCACAUCUACGAAUUCGUACCAUAGAGAGGUUAUGCCGACUCACCGAGAUCGGAAGAGCACACGU",Kd,11.5 ± 0.5 nM
"target 1 insA 3' of 22,insC 3' of 20 (mixed) RNA 1: CACCCGUGCAAAAAUGCAGGGGUCUAAAACUGAGCGGAUAACCUCUCUAUGG RNA 2: GGGAAUGGAUCCACAUCUACGAAUUCGUACACACUAGAGAGGUUAUCCGCUCACCGAGAUCGGAAGAGCACACGU",Kd,5.9 ± 0.23 nM
"target 1 C6A,A9C (mixed) RNA 1: CACCCGUGCAAAAAUGCAGGGGUCUAAAACUGAGCGGAUAACCUCUCUAUGG RNA 2: GGGAAUGGAUCCACAUCUACGAAUUCGUACCAUAGAGAGGUUCUCAGCUCACCGAGAUCGGAAGAGCACACGU",Kd,23 ± 1.5 nM
"target 1 insG 3' of 22,insG 3' of 22 (mixed) RNA 1: CACCCGUGCAAAAAUGCAGGGGUCUAAAACUGAGCGGAUAACCUCUCUAUGG RNA 2: GGGAAUGGAUCCACAUCUACGAAUUCGUACGGCAUAGAGAGGUUAUCCGCUCACCGAGAUCGGAAGAGCACACGU",Kd,34.6 ± 2.2 nM
"target 1 insA 3' of 22,insG 3' of 6 (mixed) RNA 1: CACCCGUGCAAAAAUGCAGGGGUCUAAAACUGAGCGGAUAACCUCUCUAUGG RNA 2: GGGAAUGGAUCCACAUCUACGAAUUCGUACACAUAGAGAGGUUAUCCGGCUCACCGAGAUCGGAAGAGCACACGU",Kd,17.4 ± 1.6 nM
"target 1 insA 3' of 11,insG 3' of 9 (mixed) RNA 1: CACCCGUGCAAAAAUGCAGGGGUCUAAAACUGAGCGGAUAACCUCUCUAUGG RNA 2: GGGAAUGGAUCCACAUCUACGAAUUCGUACCAUAGAGAGGUAUAGUCCGCUCACCGAGAUCGGAAGAGCACACGU",Kd,23.7 ± 2 nM
